Our source for the Kd values is paper PMC6543813.

Like-named read-outs stand apart in the source and are kept apart here.

Assay [1] concerns the target recombinant VLDLR(1–8) fragment of the VLDL receptor. As to the kind of experiment: SPR.
Assay [2] shares this target. As to the kind of experiment: SPR. This is another data set of the same source.
Assay [3] addresses recombinant dimeric (β15–66)2 fragment (UniProt P02675). As to the kind of experiment: ELISA.
For assay [4] the target is unchanged. As to the kind of experiment: ELISA. The source holds these as a separate data set.
The target of assay [5] is (β15–66)2-R^30 mutant fragment (UniProt P02675). Description: ELISA.
The target in assay [6] is (β15–66)2-K^53K^54K^58 mutant fragment (UniProt P02675). Description: ELISA.
The target of assay [7] is (β15–66)2-R^57 mutant fragment (UniProt P02675). As to the kind of experiment: ELISA.
Assay [8] has as its target (β15–66)2-K^21K^22 mutant fragment (UniProt P02675). As to the kind of experiment: ELISA.
The target in assay [9] is recombinant (β15–66)2-R^17 mutant with Arg17Glu mutation (UniProt P02675). Description: ELISA.

With “(β15–66)2-K^21K^22 mutant fragment (from UniProt P02675 45-94) (domain or fragment)”, the Kd in assay [1] came to 37 nM.
For “recombinant dimeric (β15–66)2 fragment (from UniProt P02675 45-94) (domain or fragment)”, the Kd turned out to be 11.1 nM in assay [1] and 20.5 nM in [2].
For the substance “(β15–66)2-R^42R^44K^47 mutant fragment (from UniProt P02675 45-94) (domain or fragment)”, the Kd in assay [1] stood at 6100 nM.
Turning to “recombinant monomeric β15–64 fragment (from UniProt P02675 45-94) (domain or fragment)”, in assay [1], the Kd was 6100 nM.
Same read-out and setting: to “(β15–66)2-K^53K^54K^58 mutant fragment (from UniProt P02675 45-94) (domain or fragment)” belongs 250 nM; to “(β15–66)2-K^21K^22R^23 mutant fragment (from UniProt P02675 45-94) (domain or fragment)”, 175 nM.
The same measure, in the same setting: to “(β15–66)2-K^53K^54R^57K^58 mutant fragment (from UniProt P02675 45-94) (domain or fragment)” belongs 11700 nM; to “(β15–66)2-R^42R^44 mutant fragment (from UniProt P02675 45-94) (domain or fragment)”, 204 nM.
As for “recombinant VLDLR(1–8) fragment of the VLDL receptor (domain or fragment)”, the Kd amounted to 34.1 nM in assay [3]; 13.5 nM in assay [4]; 6.3 nM in [5]; 124 nM in [6]; 6.4 nM in [7]; 21 nM in assay [8]. In assay [9], the Kd was found to be 7.3 nM.
